# In patent US6602992B1, “Mammalian prestin polynucleotides” (Northwestern University, priority 2000, dated 2003):
# T1: prestin (Meriones unguiculatus, UniProt Q9JKQ2)
# T1 sequence (Q9JKQ2 1-744): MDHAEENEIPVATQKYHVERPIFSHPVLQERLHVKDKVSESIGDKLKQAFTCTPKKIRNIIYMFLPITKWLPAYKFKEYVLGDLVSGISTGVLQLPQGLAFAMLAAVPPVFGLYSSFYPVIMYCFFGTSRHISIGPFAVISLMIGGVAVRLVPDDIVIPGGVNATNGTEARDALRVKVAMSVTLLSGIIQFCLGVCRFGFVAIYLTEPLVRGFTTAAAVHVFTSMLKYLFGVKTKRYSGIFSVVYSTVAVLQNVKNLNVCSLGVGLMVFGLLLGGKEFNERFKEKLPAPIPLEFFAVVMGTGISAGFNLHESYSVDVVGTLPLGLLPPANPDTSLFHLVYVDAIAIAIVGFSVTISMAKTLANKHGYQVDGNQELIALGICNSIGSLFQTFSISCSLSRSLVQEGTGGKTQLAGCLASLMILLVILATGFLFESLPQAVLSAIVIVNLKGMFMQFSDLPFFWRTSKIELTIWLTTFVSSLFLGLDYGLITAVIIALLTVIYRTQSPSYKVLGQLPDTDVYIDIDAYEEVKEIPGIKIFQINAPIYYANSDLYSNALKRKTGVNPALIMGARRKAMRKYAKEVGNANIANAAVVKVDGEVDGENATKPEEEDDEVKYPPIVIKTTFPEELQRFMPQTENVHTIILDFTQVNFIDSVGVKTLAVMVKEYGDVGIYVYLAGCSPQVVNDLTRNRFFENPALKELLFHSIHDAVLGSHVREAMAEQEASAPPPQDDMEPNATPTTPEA
# B1: human pendrin: chloride-iodide transport protein homologous to prestin, expressed from cDNA as specificity control (protein, UniProt O43511 1-780, looked up)
# Pendrin: MAAPGGRSEPPQLPEYSCSYMVSRPVYSELAFQQQHERRLQERKTLRESLAKCCSCSRKRAFGVLKTLVPILEWLPKYRVKEWLLSDVISGVSTGLVATLQGMAYALLAAVPVGYGLYSAFFPILTYFIFGTSRHISVGPFPVVSLMVGSVVLSMAPDEHFLVSSSNGTVLNTTMIDTAARDTARVLIASALTLLVGIIQLIFGGLQIGFIVRYLADPLVGGFTTAAAFQVLVSQLKIVLNVSTKNYNGVLSIIYTLVEIFQNIGDTNLADFTAGLLTIVVCMAVKELNDRFRHKIPVPIPIEVIVTIIATAISYGANLEKNYNAGIVKSIPRGFLPPELPPVSLFSEMLAASFSIAVVAYAIAVSVGKVYATKYDYTIDGNQEFIAFGISNIFSGFFSCFVATTALSRTAVQESTGGKTQVAGIISAAIVMIAILALGKLLEPLQKSVLAAVVIANLKGMFMQLCDIPRLWRQNKIDAVIWVFTCIVSIILGLDLGLLAGLIFGLLTVVLRVQFPSWNGLGSIPSTDIYKSTKNYKNIEEPQGVKILRFSSPIFYGNVDGFKKCIKSTVGFDAIRVYNKRLKALRKIQKLIKSGQLRATKNGIISDAVSTNNAFEPDEDIEDLEELDIPTKEIEIQVDWNSELPVKVNVPKVPIHSLVLDCGAISFLDVVGVRSLRVIVKEFQRIDVNVYFASLQDYVIEKLEQCGFFDDNIRKDTFFLTVHDAILYLQNQVKSQEGQGSILETITLIQDCKDTLELIETELTEEELDVQDEAMRTLAS
# B2: N-tagged prestin: full-length prestin with an Xpress epitope located upstream and in-frame (protein, UniProt P58743 1-744, looked up)
# chain: MDHAEENEILAATQRYYVERPIFSHPVLQERLHTKDKVPDSIADKLKQAFTCTPKKIRNIIYMFLPITKWLPAYKFKEYVLGDLVSGISTGVLQLPQGLAFAMLAAVPPIFGLYSSFYPVIMYCFLGTSRHISIGPFAVISLMIGGVAVRLVPDDIVIPGGVNATNGTEARDALRVKVAMSVTLLSGIIQFCLGVCRFGFVAIYLTEPLVRGFTTAAAVHVFTSMLKYLFGVKTKRYSGIFSVVYSTVAVLQNVKNLNVCSLGVGLMVFGLLLGGKEFNERFKEKLPAPIPLEFFAVVMGTGISAGFNLKESYNVDVVGTLPLGLLPPANPDTSLFHLVYVDAIAIAIVGFSVTISMAKTLANKHGYQVDGNQELIALGLCNSIGSLFQTFSISCSLSRSLVQEGTGGKTQLAGCLASLMILLVILATGFLFESLPQAVLSAIVIVNLKGMFMQFSDLPFFWRTSKIELTIWLTTFVSSLFLGLDYGLITAVIIALLTVIYRTQSPSYKVLGKLPETDVYIDIDAYEEVKEIPGIKIFQINAPIYYANSDLYSNALKRKTGVNPAVIMGARRKAMRKYAKEVGNANMANATVVKADAEVDGEDATKPEEEDGEVKYPPIVIKSTFPEEMQRFMPPGDNVHTVILDFTQVNFIDSVGVKTLAGIVKEYGDVGIYVYLAGCSAQVVNDLTRNRFFENPALWELLFHSIHDAVLGSQLREALAEQEASAPPSQEDLEPNATPATPEA
# modifications: full-length N-terminal Xpress tag
# B3: C-tagged prestin: full-length prestin tagged at the C-terminus with a V5 epitope (protein, UniProt P58743 1-744, looked up)
# chain: B2 chain
# modifications: full-length C-terminal V5 tag
# B4: prestin: gerbil outer hair cell motor protein, 744 amino acids, 81.4 kiloDaltons, SEQ ID NO:1, expressed from Pres cDNA (protein, listed as Meriones unguiculatus)
# chain: T1 sequence (Q9JKQ2 1-744)
# How the values were obtained:
# prestin [1] = target: T1, prestin
# Protocol: (§1) TSA201 cells, clones of human embryonic kidney 293 cells that express the simian virus 40 (SV40) large T-antigen in a stable manner, were cultured in DMEM with 5% fetal calf serum, 100 units of penicillin per millilter, and 100 micrograms of streptomycin per milliliters. Cells were plated for 24 hours before calcium phosphate transfection. The transfection reaction mixture contained:
# (§2) a) control plasmid, pcDNA3.1; b) 2 micrograms of Pres cDNA plasmid; c) 2 micrograms of Pres cDNA plasmid plus 0.2 micrograms of green fluorescent protein (GFP) plasmid as transfection marker; or d) 2 micrograms of pendrin cDNA plasmid plus 0.2 micrograms GFP plasmid.
# (§3) After 24 hours the transfected cells were used for electrophysiological and physical measurements.
# Whole-cell voltage-clamp recordings were made with an Axopatch™ 200B amplifier (Axon Instruments, Foster City, Calif.) Recording pipettes had open tip resistances of 2-3 megaohms and were filled with internal solution containing 140 millimolar CsCl, 2 millimolar MgCl2, 10 millimolar EGTA, and 10 millimolar HEPES at pH 7.2. The external solution contained: 120 millimolar NaCl, 20 millimolar TEA-Cl, 2 millimolar CoCl2, 2 millimolar MgCl2, 10 millimolar HEPES, and 5 millimolar glucose at pH 7.2. Osmolarity was adjusted to 300 milliosmolar per liter with glucose. Capacitive currents were filtered at 5 kilohertz and digitized at 50 kilohertz using pClamp 7.0 software (Axon Instruments).
# Voltage-dependent capacitance was measured using two methods. First, a standard P/4 linear subtraction procedure was employed to detect the presence of nonlinear charge movement. After nonlinear transient current was detected, a stair-step voltage protocol was used to obtain the parameters of charge movement. For each voltage step, the measured membrane capacitance (Cm) was plotted as a function of membfane voltage (Vm) and fitted with the derivative of a Boltzmann function: [formula] […]
# prestin [2] = target: T1, prestin; conditions: 10 millimolar in external bathing solution, FIG. 6C
# Protocol: as §1, §2, §3
# TSA201 cells were drawn into a microchamber with gentle suction (FIG. 6A). The microchamber was mounted on a three-dimensional micromanipulator attached to the stage of a Zeiss inverted microscope. […] The command voltage, delivered between the electrolyte solutions (L15, Gibco BRL) surrounding and filling the microchamber, produces different voltage drops on the included and excluded cell membrane segments, determined by the electrical voltage-divider effect of these membranes. During motility measurements, the location of the cell within the slit was monitored via a video camera placed behind the slit. […]
# TSA201 cells [3] = assay: Nonlinear capacitance / charge movement conveyed to transiently transfected TSA201 cells; format: cell-based, human; set-up: average charge density: unit not given here; conditions: for nonlinear capacitance: co-transfected with GFP
# Protocol: The transfection reaction mixture contained:
# Voltage-dependent capacitance was measured using two methods.
# To test the sensor-motor function of prestin, voltage-dependent charge movement was measured in TSA201 cells after transient transfection of unmodified, native Pres cDNA. A second plasmid (pEGFP-N2) containing GFP cDNA was used as an independent marker for successful transfection of the cells. Transfection efficiency was 30-40% as judged from the fluorescence of GFP in transfected cells. […] In experiments conducted on cells co-transfected with prestin and GFP cDNA, transient capacitive currents were obtained from 91.8% of the GFP positive cells. […] The capacitive currents were directed towards the outside as the membrane potential was depolarized and toward the inside as it was hyperpolarized. Charges transferred at command onset and offset were approximately equal. The decay of transient currents was rapid (100-200 microseconds) and could be well-fitted with a single exponential. The voltage protocol used to estimate membrane capacitance and charge transfer across the membrane was an ascending stair-step voltage waveform (FIG. 5B). The membrane capacitance was fitted to the derivative of a first-order Boltzmann equation (FIG. 5C). In a group of seven cells, these curve-fits yielded values of Qmax=1.76±0.20 pC, V1/2=−57.30 ±2.98 mV, 1/a˜=kT/ze=28.00±2.13 mV, and Clin=20.50±2.65 pF, respectively (mean±SEM). The valence can be calculated from a, z=0.91. The average charge density, a possible measure of transiently transfected motor protein density in TSA201 cells, was […]. The numerical values that characterize the charge movement (V1/2, z) are quite similar to those obtained for OHCs. The maximum charge and charge density are less in the transfected cells, even though the linear capacitance is about the same as that of an average OHC. […]
# TSA201 cells [4] = assay: Electromotility conveyed to transfected TSA201 cells (microchamber); format: cell-based, human; conditions: cells drawn into microchamber, 200 Hertz sinusoid
# Description: A change of photocurrent signified cell extension or contraction.
# [5] = Boltzmann fit, seven cells, mean±SEM
molecule,measurement,setting,value
"O=C([O-])c1ccccc1O.[Na+] [Sodium salicylate, sodium salicylate]",effect on charge movement,prestin [1],reversibly blocks charge movement
same,"transient currents after recovery, % of control","prestin [1]; 3 cells, after 2-5 minutes of washing in normal extracellular solution without sodium salicylate",88.4±8.8 % of control
same,"transient currents, % of control","prestin [1]; 10 millimolar sodium salicylate applied locally, mean±SEM",15.5±2.9 % of control
same,effect on electromotile response,prestin [2],reversible decrease in the electromotile response
B1,nonlinear capacitance,TSA201 cells [3],None of the GFP-positive cells demonstrated nonlinear capacitance
B2,nonlinear capacitance,TSA201 cells [3],typical nonlinear capacitance curve is observed
B3,nonlinear capacitance,TSA201 cells [3],typical nonlinear capacitance curve is observed
B4,cells tested showing electromotility,TSA201 cells [4],about 22%
same,"1/a = kT/ze, slope factor",TSA201 cells [3]; [5],28.00±2.13 mV
same,"Qmax, maximum charge transfer",TSA201 cells [3]; [5],1.76±0.20 pC
same,"V1/2, voltage at which the maximum charge is equally distributed",TSA201 cells [3]; [5],−57.30 ±2.98 mV
same,valence z,TSA201 cells [3]; calculated from a,0.91
same,cells displaying transient capacitive currents,TSA201 cells [3]; cells transfected with Pres alone,36.8%
same,GFP positive cells displaying transient capacitive currents,TSA201 cells [3]; co-transfected with prestin and GFP cDNA,91.8%
same,decay of transient currents,TSA201 cells [3]; single exponential,100-200 microseconds
same,average charge density,TSA201 cells [3]; transiently transfected TSA201 cells,5360
